# In publication PMC7949053, “Natural variants modify Klebsiella pneumoniae carbapenemase (KPC) acyl–enzyme conformational dynamics to extend antibiotic resistance” (The Journal of Biological Chemistry, 2020):
# How the values were obtained:
# [1] = system: CC(C)(O/N=C(\C(=O)N[C@@H]1C(=O)N2C(C(=O)[O-])=C(C[n+]3ccccc3)CS[C@H]12)c1csc(N)n1)C(=O)O; assay: purified protein; details: 10 mM HEPES pH 7.5, 150 mM NaCl, 25 °C, standard error in parentheses
# [2] = system: CO/N=C(\C(=O)N[C@@H]1C(=O)N2C(C(=O)O)=C(COC(C)=O)CS[C@H]12)c1csc(N)n1; assay: purified protein; details: 10 mM HEPES pH 7.5, 150 mM NaCl, 25 °C, standard error in parentheses, n = 3
substance,measurement,setting,value
KPC-2 (Klebsiella pneumoniae),Km,[1],530 (70) μM
same,kcat,[1],1.9 s⁻¹
same,kcat/Km,[1],3500 M⁻¹ s⁻¹
same,Km,[2],200 (29) μM
same,kcat,[2],76 s⁻¹
same,kcat/Km,[2],380000 M⁻¹ s⁻¹
